Laboratory results taken from patent US20240270821A1, “GIP/GLP1/GCG TRI-RECEPTOR AGONISTS AND USES THEREOF” (priority 2023, published 2024).
Changes are numbered by the printed parent chain. Starred links: 1 amine or outer side, 2 acyl side, 3 side chain; linkers in the order of their positions; H or OH if unused. Non-standard residues stand in square brackets, D forms with d. Groups on a side chain read outwards from the residue. No end group written: not given here. *: point of attachment. C20 diacid = O=C(O)CCCCCCCCCCCCCCCCCCC(=O)*; αMePhe(2-F) = C[C@](N)(Cc1ccccc1F)C(=O)O; γGlu = O=C(O)[C@H](CCC(=O)[*:2])N[*:1]; NMeY = CN[C@@H](Cc1ccc(O)cc1)C(=O)O; αMeF = C[C@](N)(Cc1ccccc1)C(=O)O; αMeL = CC(C)C[C@](C)(N)C(=O)O; Orn = NCCC[C@H](N)C(=O)O; AEEA = NCCOCCOCC(=O)O; Aib = CC(C)(N)C(=O)O

T1: human GIP receptor (human) (UniProt P48546)
T1 sequence (looked up): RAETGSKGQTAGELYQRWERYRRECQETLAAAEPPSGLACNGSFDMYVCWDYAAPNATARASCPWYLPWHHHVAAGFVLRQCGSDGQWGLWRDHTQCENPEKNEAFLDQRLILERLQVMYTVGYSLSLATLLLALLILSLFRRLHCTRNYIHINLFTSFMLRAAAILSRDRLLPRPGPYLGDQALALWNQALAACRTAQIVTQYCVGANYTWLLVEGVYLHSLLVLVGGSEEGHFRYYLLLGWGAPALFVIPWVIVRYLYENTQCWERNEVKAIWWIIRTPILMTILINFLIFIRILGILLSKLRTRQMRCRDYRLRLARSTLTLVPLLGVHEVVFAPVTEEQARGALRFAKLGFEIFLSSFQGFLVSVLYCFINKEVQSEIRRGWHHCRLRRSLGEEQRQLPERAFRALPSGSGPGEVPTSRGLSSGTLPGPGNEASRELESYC

B1: Example 327 (peptide)
chain: Y[Aib]QGTFTSDYSI[αMeL]LDKQAAK([AEEA-AEEA-γGlu-C20 diacid])QFVEWLLA[Aib]GPSSGAPPPSEG-NH2
B2: Example 496 (peptide)
chain: YXQGTFTSDFSXXLDKKAQXAFIEXLLEGGPSSGAPPPGGS
modifications: synthetic construct; SITE 2: note = 2-Aminoisobutyric Acid; SITE 12: note = L-ornithine; SITE 13: note = alpha-methyl-leucine; SITE 17: note = Lysine is chemically modified through conjugation of the epsilon-amino group of the Lysine side chain with (2-[2-(2-Amino-ethoxy)-ethoxy]-acetyl)-(gamma-Glu)
B3: Example 316 (peptide)
chain: Y[Aib]QGTFTSDYSKLLDKK([AEEA-γGlu-C20 diacid])AQ[Aib]AFVQWLIEGGPSSGEPPPSEG-NH2
B4: Example 286 (peptide)
chain: YXQGTFTSDXSKXLDKKAQXAFIEYLIAXGESSGEPPPSGE
modifications: synthetic construct; SITE 2: note = 2-Aminoisobutyric Acid; SITE 10: note = 3-(4-Pyridyl)-L-alanine; SITE 13: note = alpha-methyl-leucine; SITE 17: note = Lysine is chemically modified through conjugation of the epsilon-amino group of the Lysine side chain with (2-[2-(2-Amino-ethoxy)-ethoxy]-acetyl)
B5: Example 287 (peptide)
chain: B4 chain with E41S
modifications: synthetic construct; SITE 2: note = 2-Aminoisobutyric Acid; SITE 10: note = 3-(4-Pyridyl)-L-alanine; SITE 13: note = alpha-methyl-leucine; SITE 17: note = Lysine is chemically modified through conjugation of the epsilon-amino group of the Lysine side chain with (2-[2-(2-Amino-ethoxy)-ethoxy]-acetyl)
B6: Example 292 (peptide)
chain: YXQGTXTSDYSKXLDKKAQXQFIEYLEEGGPSSGEPPPSEG
modifications: synthetic construct; SITE 2: note = 2-Aminoisobutyric Acid; SITE 6: note = alpha-methyl-2-fluoro-L-phenylalanine; SITE 13: note = alpha-methyl-leucine; SITE 17: note = Lysine is chemically modified through conjugation of the epsilon-amino group of the Lysine side chain with (2-[2-(2-Amino-ethoxy)-et)
B7: Example 314 (peptide)
chain: Y[Aib]QGTFTSDYSK[αMeL]LDKK([AEEA-γGlu-C20 diacid])AQQAFIQWLIEGGPSSGEPPPSEG-NH2
B8: Example 317 (peptide)
chain: Y[Aib]QGTFTSDYSI[αMeL]LDKQAAK([AEEA-AEEA-γGlu-C20 diacid])AFVEWLLA[Aib]GPSSGEPPPSEG-NH2
B9: Example 319 (peptide)
chain: Y[Aib]QGTFTSDYSI[αMeL]LDKQAAK([AEEA-AEEA-γGlu-C20 diacid])QFIEWLIEGGPSSGEPPPGAE-NH2
B10: Example 303 (peptide)
chain: Y[Aib]QGT[αMePhe(2-F)]TSDYSKLLDEIAQKAFIEYLLEGGPSSGEPPPSEG-NH2
modifications: not fully specified (residue 20)
B11: Example 328 (peptide)
chain: Y[Aib]QGTFTSDYSI[αMeL]LD[Orn]QAAK([AEEA-AEEA-γGlu-C20 diacid])QFVEWLLA[Aib]GPSSGEPPPSEG-NH2
B12: Example 318 (peptide)
chain: Y[Aib]QGTFTSDYSI[αMeL]LDKQAAK([AEEA-AEEA-γGlu-C20 diacid])QFIEWLIEGGPSSGEPPPGEG-NH2
B13: Example 325 (peptide)
chain: Y[Aib]QGTFTSDYSI[αMeL]LDKQAAK([AEEA-AEEA-γGlu-C20 diacid])QFVNWLLA[Aib]GPSSGEPPPSEG-NH2
B14: Example 650 (SEQ ID NO: 656) (peptide)
chain: YXQGTXTSDXSIXLDKKAQXXFIEYLAEGGPSSGEPPPEGSEE
modifications: synthetic construct; SITE 2: note = 2-Aminoisobutyric Acid; SITE 6: note = alpha-methyl-2-fluoro-L-phenylalanine; SITE 10: note = 3-(4-Pyridyl)-L-alanine; SITE 13: note = alpha-methyl-leucine; SITE 17: note = Lysine is chemically modified through conjugation of the epsilon-amino group of the Lysine
B15: Example 454 (peptide)
chain: YXQGTXTSDXSILLDXIAQXAFIKYLEEGGPSSGAPPPS
modifications: synthetic construct; SITE 2: note = 2-Aminoisobutyric Acid; SITE 6: note = alpha-methyl-2-fluoro-L-phenylalanine; SITE 10: note = 3-(4-Pyridyl)-L-alanine; SITE 16: note = L-ornithine; SITE 20: note = 2-Aminoisobutyric Acid; SITE 24: note = Lysine is chemically modified through conjugation of the eps
B16: Example 455 (peptide)
chain: B15 chain with X10Y, L13X, X16K
modifications: synthetic construct; SITE 2: note = 2-Aminoisobutyric Acid; SITE 6: note = alpha-methyl-2-fluoro-L-phenylalanine; SITE 13: note = alpha-methyl-leucine; SITE 20: note = 2-Aminoisobutyric Acid; SITE 24: note = Lysine is chemically modified through conjugation of the epsilon-amino group of the Lysine s
B17: Example 324 (peptide)
chain: Y[Aib]QGTFTSDYSI[αMeL]LDKIAAK([AEEA-AEEA-γGlu-C20 diacid])QFVEWLLA[Aib]GPSSGEPPPSEG-NH2
B18: Example 322 (peptide)
chain: Y[Aib]QGTFTSDYSK[αMeL]LDKK([AEEA-γGlu-C20 diacid])AQQAFIEYLIAGGPSSGAPPPSSE-NH2
B19: Example 299 (peptide)
chain: [NMeY][Aib]QGT[αMeF]TSDYSILLDKIAAK([AEEA-AEEA-γGlu-C20 diacid])AFIEYLIEGGPSSGEPPPSEG-NH2
B20: Example 326 (peptide)
chain: Y[Aib]QGTFTSDYSI[αMeL]LDKQAAK([AEEA-AEEA-γGlu-C20 diacid])QFVEWLIA[Aib]GPSSGEPPPSEG-NH2
B21: Example 306 (peptide)
chain: Y[Aib]QGT[αMePhe(2-F)]TSDYSILLDKAAQK[Orn]FIEYLIEGGPSSGEPPPSEG-NH2
modifications: not fully specified (residue 20)
B22: Example 312 (peptide)
chain: Y[Aib]QGTFTSDYSI[αMeL]LDKIAAK([AEEA-AEEA-γGlu-C20 diacid])QFVEYLIAGGPSSGEPPPSEG-NH2
B23: Example 310 (peptide)
chain: Y[Aib]QGT[αMePhe(2-F)]TSDYSKLLDKIAQK[Orn]FIEWLIEGGPSSGEPPPSEG-NH2
modifications: not fully specified (residue 20); ends and bridges not checked
B24: Example 320 (peptide)
chain: Y[Aib]QGTFTSDYSI[αMeL]LDKQAAK([AEEA-AEEA-γGlu-C20 diacid])QFVEWLLAGGPSSGEPPPGEG-NH2
B25: Example 313 (peptide)
chain: Y[Aib]QGTFTSDYSI[αMeL]LDKK([AEEA-γGlu-C20 diacid])AQRAFIEYLLEGGPSSGEPPPSG-NH2

Molecular target: human glucagon receptor (human) (UniProt P47871)
Sequence (P47871 26-477): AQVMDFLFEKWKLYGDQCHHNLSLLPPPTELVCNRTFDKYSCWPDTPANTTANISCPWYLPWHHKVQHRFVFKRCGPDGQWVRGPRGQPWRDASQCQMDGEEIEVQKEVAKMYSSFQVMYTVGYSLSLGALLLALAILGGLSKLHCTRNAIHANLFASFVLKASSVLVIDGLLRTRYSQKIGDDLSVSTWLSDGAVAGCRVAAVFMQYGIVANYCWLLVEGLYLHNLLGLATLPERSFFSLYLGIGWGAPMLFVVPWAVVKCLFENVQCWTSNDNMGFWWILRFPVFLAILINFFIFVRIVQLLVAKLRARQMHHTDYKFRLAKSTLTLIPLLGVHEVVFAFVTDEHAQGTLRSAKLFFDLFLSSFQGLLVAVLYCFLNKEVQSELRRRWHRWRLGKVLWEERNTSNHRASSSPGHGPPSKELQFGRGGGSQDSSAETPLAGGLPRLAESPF
Test: cell-based or functional assay

Row | Binder | Relative cAMP EC50 [nM] | cAMP Rel EC50 (1% HSA) [nM] | Relative cAMP EC50, nM (0.1% casein) [nM] | cAMP Rel EC50 (in the presence of 1% HSA) [nM]
1 | B1 | 3.04 | 1400 | – | –
2 | B2 | – | – | 8.25 | –
3 | B3 | 5.22 | 2090 | – | –
4 | B4 | 2.2 | – | – | 228
5 | B5 | 2.53 | – | – | 291
6 | B6 | 1.84 | – | – | 583
7 | B7 | 3.7 | 1030 | – | –
8 | B8 | 2.42 | 1500 | – | –
9 | B9 | 4.81 | 1650 | – | –
10 | B10 | 6.1 | 9950 | – | –
11 | B11 | 10.3 | 2040 | – | –
12 | B12 | 5.03 | 1970 | – | –
13 | B13 | 2.43 | 774 | – | –
14 | B14 | 16.2 | – | – | –
15 | B15 | – | – | 9.11 | –
16 | B16 | – | – | 4.36 | –
17 | B17 | 5.74 | 1410 | – | –
18 | B18 | 5.41 | 2620 | – | –
19 | B19 | 2.54 | 1700 | – | –
20 | B20 | 5.34 | 1500 | – | –
21 | B21 | 5.8 | 2820 | – | –
22 | B22 | 7.5 | 4070 | – | –
23 | B23 | 3.52 | 4000 | – | –
24 | B24 | 6.87 | 1170 | – | –
25 | B25 | 4.11 | 3290 | – | –

Molecular target: hGLP-1R (Homo sapiens, UniProt P43220)
Sequence (P43220 24-463): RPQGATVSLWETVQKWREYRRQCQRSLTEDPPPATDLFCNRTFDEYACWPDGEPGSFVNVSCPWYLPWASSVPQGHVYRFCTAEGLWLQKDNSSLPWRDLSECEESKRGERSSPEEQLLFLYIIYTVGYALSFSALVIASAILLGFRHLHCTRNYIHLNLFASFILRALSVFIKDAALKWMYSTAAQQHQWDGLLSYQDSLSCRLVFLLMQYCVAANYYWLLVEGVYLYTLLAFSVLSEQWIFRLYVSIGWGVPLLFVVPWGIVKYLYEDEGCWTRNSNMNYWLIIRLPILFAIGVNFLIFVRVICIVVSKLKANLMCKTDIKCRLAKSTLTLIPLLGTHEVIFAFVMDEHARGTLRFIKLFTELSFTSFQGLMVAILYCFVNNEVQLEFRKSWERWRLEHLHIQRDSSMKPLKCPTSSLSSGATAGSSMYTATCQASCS
Test: cell-based or functional assay

Row | Binder | Relative cAMP EC50 [nM] | cAMP Rel EC50 (1% HSA) [nM] | Relative cAMP EC50, nM (0.1% casein) [nM] | cAMP Rel EC50 (in the presence of 1% HSA) [nM]
26 | B1 | 1.61 | 473 | – | –
27 | B2 | – | – | 9.69 | –
28 | B3 | 0.362 | 78.7 | – | –
29 | B4 | 3.45 | – | – | 925
30 | B5 | 4.25 | – | – | 562
31 | B6 | 1.03 | – | – | 129
32 | B7 | 0.274 | 100 | – | –
33 | B8 | 1.32 | 234 | – | –
34 | B9 | 0.947 | 119 | – | –
35 | B10 | 1.13 | 257 | – | –
36 | B11 | 1.3 | 462 | – | –
37 | B12 | 0.698 | 111 | – | –
38 | B13 | 1.56 | 371 | – | –
39 | B14 | 0.649 | – | – | –
40 | B15 | – | – | 0.821 | –
41 | B16 | – | – | 0.49 | –
42 | B17 | 4.4 | 1060 | – | –
43 | B18 | 0.394 | 135 | – | –
44 | B19 | 0.963 | 380 | – | –
45 | B20 | 0.555 | 172 | – | –
46 | B21 | 0.335 | 126 | – | –
47 | B22 | 2.66 | 589 | – | –
48 | B23 | 0.586 | 177 | – | –
49 | B24 | 2.58 | 328 | – | –
50 | B25 | 0.304 | 135 | – | –

Molecular target: T1, human GIP receptor (human)
Test: cell-based or functional assay

Row | Binder | Relative cAMP EC50 [nM] | cAMP Rel EC50 (1% HSA) [nM] | Relative cAMP EC50, nM (0.1% casein) [nM] | cAMP Rel EC50 (in the presence of 1% HSA) [nM]
51 | B1 | 0.312 | 63.3 | – | –
52 | B2 | – | – | 0.387 | –
53 | B3 | 0.259 | 102 | – | –
54 | B4 | 0.0845 | – | – | 11.5
55 | B5 | 0.0633 | – | – | 9.94
56 | B6 | 1.02 | – | – | 92.7
57 | B7 | 0.345 | 65.9 | – | –
58 | B8 | 0.474 | 62.8 | – | –
59 | B9 | 0.485 | 60.1 | – | –
60 | B10 | 0.116 | 44.7 | – | –
61 | B11 | 0.544 | 91.1 | – | –
62 | B12 | 0.378 | 52.8 | – | –
63 | B13 | 0.351 | 82.7 | – | –
64 | B14 | 0.0814 | – | – | –
65 | B15 | – | – | 0.0154 | –
66 | B16 | – | – | 0.0182 | –
67 | B17 | 0.164 | 20.7 | – | –
68 | B18 | 0.264 | 89.3 | – | –
69 | B19 | 0.137 | 40.2 | – | –
70 | B20 | 0.3 | 83.7 | – | –
71 | B21 | 0.142 | 95.3 | – | –
72 | B22 | 0.504 | 97.7 | – | –
73 | B23 | 0.0939 | 15 | – | –
74 | B24 | 0.274 | 55.3 | – | –
75 | B25 | 0.49 | 86.4 | – | –
